± gives the uncertainty stated by the source.
B1: Protein S100-G, residues 1 to 79; numbered along this chain, P02633 (parent)
chain: MSAKKSPEELKGIFEKYAAKEGDPNQLSKEELKLLLQTEFPSLLKGPSTLDELFEELDKNGDGEVSFEEFQVLVKKISQ

Variants of: B1
Assay: abundance fitness (aPCA) (normalised: wild type 0, dead -1); higher = more abundant; growth selection in yeast, the domain comes from the species named
Conditions: Bos taurus

Q: With MSAKKSPEELKGIFEKYAAKEGDPNQLSKEELKLLLSTEFPSLLKGPSTLDELFEELDKNGDGEVSFEEFQVLVKKISQ [Q37S] as the variant, how does the abundance fitness read?
A: -0.142 ± 0.063

Q: For MSAKKSPEELKGIFEKYAAKEGDPNQLSKEELKLLLVTEFPSLLKGPSTLDELFEELDKNGDGEVSFEEFQVLVKKISQ [Q37V], which abundance fitness is on record?
A: -0.001 ± 0.072

Q: Which abundance fitness does the source give for MSAKKSPEELKGIFEKYAAKEGDPNQLSKEELKLLLWTEFPSLLKGPSTLDELFEELDKNGDGEVSFEEFQVLVKKISQ [Q37W] here?
A: -0.082 ± 0.085

Q: For MSAKKSPEELKGIFEKYAAKEGDPNQLSKEELKLLLYTEFPSLLKGPSTLDELFEELDKNGDGEVSFEEFQVLVKKISQ [Q37Y], which abundance fitness is on record?
A: -0.118 ± 0.075

Q: With MSAKKSPEELKGIFEKYAAKEGDPNQLSKEELKLLLETEFPSLLKGPSTLDELFEELDKNGDGEVSFEEFQVLVKKISQ [Q37E] as the variant, how does the abundance fitness read?
A: 0.019 ± 0.092

Q: With MSAKKSPEELKGIFEKYAAKEGDPNQLSKEELKLLLTTEFPSLLKGPSTLDELFEELDKNGDGEVSFEEFQVLVKKISQ [Q37T] as the variant, how does the abundance fitness read?
A: 0.021 ± 0.067

Q: Which abundance fitness does the source give for MSAKKSPEELKGIFEKYAAKEGDPNQLSKEELKLLLHTEFPSLLKGPSTLDELFEELDKNGDGEVSFEEFQVLVKKISQ [Q37H] here?
A: -0.047 ± 0.078

Q: With MSAKKSPEELKGIFEKYAAKEGDPNQLSKEELKLLLDTEFPSLLKGPSTLDELFEELDKNGDGEVSFEEFQVLVKKISQ [Q37D] as the variant, how does the abundance fitness read?
A: 0.054 ± 0.088

Q: For MSAKKSPEELKGIFEKYAAKEGDPNQLSKEELKLLLFTEFPSLLKGPSTLDELFEELDKNGDGEVSFEEFQVLVKKISQ [Q37F], which abundance fitness is on record?
A: -0.016 ± 0.074

Q: With MSAKKSPEELKGIFEKYAAKEGDPNQLSKEELKLLLITEFPSLLKGPSTLDELFEELDKNGDGEVSFEEFQVLVKKISQ [Q37I] as the variant, how does the abundance fitness read?
A: -0.104 ± 0.072

Q: Which abundance fitness does the source give for MSAKKSPEELKGIFEKYAAKEGDPNQLSKEELKLLLKTEFPSLLKGPSTLDELFEELDKNGDGEVSFEEFQVLVKKISQ [Q37K] here?
A: -0.008 ± 0.08

Q: Which abundance fitness does the source give for MSAKKSPEELKGIFEKYAAKEGDPNQLSKEELKLLLGTEFPSLLKGPSTLDELFEELDKNGDGEVSFEEFQVLVKKISQ [Q37G] here?
A: 0.004 ± 0.08

Q: For MSAKKSPEELKGIFEKYAAKEGDPNQLSKEELKLLLATEFPSLLKGPSTLDELFEELDKNGDGEVSFEEFQVLVKKISQ [Q37A], which abundance fitness is on record?
A: -0.058 ± 0.074

Q: For MSAKKSPEELKGIFEKYAAKEGDPNQLSKEELKLLLRTEFPSLLKGPSTLDELFEELDKNGDGEVSFEEFQVLVKKISQ [Q37R], which abundance fitness is on record?
A: 0.005 ± 0.067

Q: For MSAKKSPEELKGIFEKYAAKEGDPNQLSKEELKLLLMTEFPSLLKGPSTLDELFEELDKNGDGEVSFEEFQVLVKKISQ [Q37M], which abundance fitness is on record?
A: -0.104 ± 0.078

Q: With MSAKKSPEELKGIFEKYAAKEGDPNQLSKEELKLLLLTEFPSLLKGPSTLDELFEELDKNGDGEVSFEEFQVLVKKISQ [Q37L] as the variant, how does the abundance fitness read?
A: -0.08 ± 0.06

Q: With MSAKKSPEELKGIFEKYAAKEGDPNQLSKEELKLLLCTEFPSLLKGPSTLDELFEELDKNGDGEVSFEEFQVLVKKISQ [Q37C] as the variant, how does the abundance fitness read?
A: -0.076 ± 0.083

Q: For MSAKKSPEELKGIFEKYAAKEGDPNQLSKEELKLLLPTEFPSLLKGPSTLDELFEELDKNGDGEVSFEEFQVLVKKISQ [Q37P], which abundance fitness is on record?
A: -0.185 ± 0.072

Q: Which abundance fitness does the source give for MSAKKSPEELKGIFEKYAAKEGDPNQLSKEELKLLLQHEFPSLLKGPSTLDELFEELDKNGDGEVSFEEFQVLVKKISQ [T38H] here?
A: -0.045 ± 0.091

Q: For MSAKKSPEELKGIFEKYAAKEGDPNQLSKEELKLLLQIEFPSLLKGPSTLDELFEELDKNGDGEVSFEEFQVLVKKISQ [T38I], which abundance fitness is on record?
A: -0.004 ± 0.081

Q: With MSAKKSPEELKGIFEKYAAKEGDPNQLSKEELKLLLQLEFPSLLKGPSTLDELFEELDKNGDGEVSFEEFQVLVKKISQ [T38L] as the variant, how does the abundance fitness read?
A: -0.073 ± 0.061

Q: For MSAKKSPEELKGIFEKYAAKEGDPNQLSKEELKLLLQMEFPSLLKGPSTLDELFEELDKNGDGEVSFEEFQVLVKKISQ [T38M], which abundance fitness is on record?
A: -0.045 ± 0.075

Q: For MSAKKSPEELKGIFEKYAAKEGDPNQLSKEELKLLLQYEFPSLLKGPSTLDELFEELDKNGDGEVSFEEFQVLVKKISQ [T38Y], which abundance fitness is on record?
A: -0.074 ± 0.084

Q: With MSAKKSPEELKGIFEKYAAKEGDPNQLSKEELKLLLQQEFPSLLKGPSTLDELFEELDKNGDGEVSFEEFQVLVKKISQ [T38Q] as the variant, how does the abundance fitness read?
A: 0.008 ± 0.082

Q: For MSAKKSPEELKGIFEKYAAKEGDPNQLSKEELKLLLQREFPSLLKGPSTLDELFEELDKNGDGEVSFEEFQVLVKKISQ [T38R], which abundance fitness is on record?
A: -0.082 ± 0.071

Q: With MSAKKSPEELKGIFEKYAAKEGDPNQLSKEELKLLLQFEFPSLLKGPSTLDELFEELDKNGDGEVSFEEFQVLVKKISQ [T38F] as the variant, how does the abundance fitness read?
A: -0.002 ± 0.08

Q: Which abundance fitness does the source give for MSAKKSPEELKGIFEKYAAKEGDPNQLSKEELKLLLQVEFPSLLKGPSTLDELFEELDKNGDGEVSFEEFQVLVKKISQ [T38V] here?
A: 0.014 ± 0.075

Q: Which abundance fitness does the source give for MSAKKSPEELKGIFEKYAAKEGDPNQLSKEELKLLLQNEFPSLLKGPSTLDELFEELDKNGDGEVSFEEFQVLVKKISQ [T38N] here?
A: -0.056 ± 0.085

Q: Which abundance fitness does the source give for MSAKKSPEELKGIFEKYAAKEGDPNQLSKEELKLLLQDEFPSLLKGPSTLDELFEELDKNGDGEVSFEEFQVLVKKISQ [T38D] here?
A: 0.096 ± 0.098

Q: With MSAKKSPEELKGIFEKYAAKEGDPNQLSKEELKLLLQWEFPSLLKGPSTLDELFEELDKNGDGEVSFEEFQVLVKKISQ [T38W] as the variant, how does the abundance fitness read?
A: -0.194 ± 0.089

Q: Which abundance fitness does the source give for MSAKKSPEELKGIFEKYAAKEGDPNQLSKEELKLLLQPEFPSLLKGPSTLDELFEELDKNGDGEVSFEEFQVLVKKISQ [T38P] here?
A: -0.642 ± 0.077

Q: For MSAKKSPEELKGIFEKYAAKEGDPNQLSKEELKLLLQCEFPSLLKGPSTLDELFEELDKNGDGEVSFEEFQVLVKKISQ [T38C], which abundance fitness is on record?
A: -0.034 ± 0.095

Q: With MSAKKSPEELKGIFEKYAAKEGDPNQLSKEELKLLLQAEFPSLLKGPSTLDELFEELDKNGDGEVSFEEFQVLVKKISQ [T38A] as the variant, how does the abundance fitness read?
A: 0.027 ± 0.078

Q: With MSAKKSPEELKGIFEKYAAKEGDPNQLSKEELKLLLQGEFPSLLKGPSTLDELFEELDKNGDGEVSFEEFQVLVKKISQ [T38G] as the variant, how does the abundance fitness read?
A: -0.1 ± 0.084

Source: the Human Domainome abundance scans (Beltran et al. 2025)
